Results taken from the Immune Epitope Database (IEDB).

Assays:
[1] = molecular target: HLA-A*01:01; assay: IEDB peptide-MHC binding, purified MHC/direct/fluorescence; filed as Kd, often an IC50 or EC50 that approximates it; ≥ and ≤ were set here for values at or beyond the usual limits of such assays
[2] = molecular target: HLA-A*80:01; assay: as above
[3] = molecular target: HLA-A*03:01; assay: as above
[4] = molecular target: HLA-A*11:01; assay: as above
[5] = molecular target: HLA-A*26:01; assay: as above
[6] = molecular target: HLA-A*31:01; assay: as above
[7] = molecular target: HLA-B*15:01; assay: as above
[8] = molecular target: HLA-B*15:09; assay: as above; conditions: source organism: Vibrio vulnificus YJ016
[9] = molecular target: HLA-B*15:17; assay: as above; conditions: source organism: Vibrio vulnificus YJ016
[10] = molecular target: HLA-B*27:05; assay: as above
[11] = molecular target: HLA-B*38:01; assay: as above; conditions: source organism: Vibrio vulnificus YJ016
[12] = molecular target: HLA-B*40:01; assay: as above
[13] = molecular target: HLA-B*46:01; assay: as above
[14] = molecular target: HLA-B*48:01; assay: as above; conditions: source organism: Vibrio vulnificus YJ016
[15] = molecular target: HLA-B*57:01; assay: as above
[16] = molecular target: HLA-B*58:01; assay: as above
[17] = molecular target: HLA-A*02:01; assay: IEDB peptide-MHC binding, purified MHC/competitive/fluorescence; filed as Kd, often an IC50 or EC50 that approximates it; ≥ and ≤ were set here for values at or beyond the usual limits of such assays; conditions: source organism: Vibrio vulnificus YJ016
[18] = molecular target: HLA-A*02:06; assay: as above
[19] = molecular target: HLA-A*30:01; assay: as above; conditions: source organism: Vibrio vulnificus YJ016
[20] = molecular target: HLA-A*69:01; assay: as above; conditions: source organism: Vibrio vulnificus YJ016
[21] = molecular target: HLA-B*08:01; assay: as above; conditions: source organism: Vibrio vulnificus YJ016
[22] = molecular target: HLA-B*18:01; assay: as above; conditions: source organism: Vibrio vulnificus YJ016
[23] = molecular target: HLA-B*39:01; assay: as above; conditions: source organism: Vibrio vulnificus YJ016
[24] = molecular target: HLA-A*02:01; assay: IEDB peptide-MHC binding, purified MHC/direct/fluorescence; filed as Kd, often an IC50 or EC50 that approximates it; ≥ and ≤ were set here for values at or beyond the usual limits of such assays
[25] = molecular target: HLA-A*24:02; assay: as above
[26] = molecular target: HLA-A*69:01; assay: as above
[27] = molecular target: HLA-B*07:02; assay: as above
[28] = molecular target: HLA-B*18:01; assay: as above
[29] = molecular target: HLA-B*44:02; assay: as above
[30] = molecular target: HLA-A*02:50; assay: IEDB peptide-MHC binding, purified MHC/competitive/fluorescence; filed as Kd, often an IC50 or EC50 that approximates it; ≥ and ≤ were set here for values at or beyond the usual limits of such assays; conditions: source organism: Shigella boydii CDC 3083-94
[31] = molecular target: HLA-A*02:11; assay: IEDB peptide-MHC binding, purified MHC/direct/fluorescence; filed as Kd, often an IC50 or EC50 that approximates it; ≥ and ≤ were set here for values at or beyond the usual limits of such assays; conditions: source organism: Amur virus Solovey/AP63/1999
[32] = molecular target: HLA-A*02:12; assay: as above; conditions: source organism: Amur virus Solovey/AP63/1999
[33] = molecular target: HLA-C*07:02; assay: as above; conditions: source organism: Hantaan virus 76-118
[34] = molecular target: HLA-C*04:01; assay: as above
[35] = molecular target: HLA-A*24:03; assay: as above; conditions: source organism: Influenza A virus (A/Hong Kong/516/97(H5N1))
[36] = molecular target: HLA-A*68:02; assay: as above; conditions: source organism: Influenza A virus (A/Hong Kong/516/97(H5N1))
[37] = molecular target: HLA-B*08:01; assay: as above
[38] = molecular target: HLA-A*26:02; assay: IEDB peptide-MHC binding, purified MHC/competitive/fluorescence; filed as Kd, often an IC50 or EC50 that approximates it; ≥ and ≤ were set here for values at or beyond the usual limits of such assays; conditions: source organism: Influenza A virus (A/Fort Monmouth/1/1947-mouse adapted(H1N1))
[39] = molecular target: HLA-B*15:17; assay: as above; conditions: source organism: Influenza A virus (A/Fort Monmouth/1/1947-mouse adapted(H1N1))
[40] = molecular target: HLA-B*08:02; assay: IEDB peptide-MHC binding, purified MHC/direct/fluorescence; filed as Kd, often an IC50 or EC50 that approximates it; ≥ and ≤ were set here for values at or beyond the usual limits of such assays; conditions: source organism: Influenza A virus H3N2
[41] = molecular target: HLA-A*24:02; assay: IEDB peptide-MHC binding, purified MHC/competitive/fluorescence; filed as Kd, often an IC50 or EC50 that approximates it; ≥ and ≤ were set here for values at or beyond the usual limits of such assays; conditions: source organism: Shigella flexneri 5 str. 8401
[42] = source organism: Burkholderia mallei
[43] = source organism: Vibrio vulnificus YJ016
[44] = source organism: Escherichia coli O157:H7
[45] = source organism: Francisella tularensis subsp. holarctica LVS
[46] = source organism: Influenza A virus (A/Hong Kong/516/97(H5N1))
[47] = source organism: Influenza A virus (A/Puerto Rico/8/34/Mount Sinai(H1N1))
[48] = source organism: Influenza A virus (A/Switzerland/8808/2002(H1N1))

ALRRRTGTR was tested, and the Kd [1, 42] was ≥ 20 µM and the Kd [2, 42] was ≥ 20 µM.
EPADHLAIM was tested, and the Kd [1, 43] was ≥ 20 µM, the Kd [3, 43] was ≥ 20 µM and the Kd [4, 43] was ≥ 20 µM. For the same sequence, the Kd [5, 43] was 0.047 µM, the Kd [6, 43] was ≥ 20 µM and the Kd [7, 43] was ≥ 20 µM. The Kd [8] was ≥ 20 µM, the Kd [9] was ≥ 20 µM and the Kd [10, 43] was ≥ 20 µM. The Kd [11] was ≥ 20 µM, the Kd [12, 43] was ≥ 20 µM and the Kd [13, 43] was ≥ 20 µM. For the same sequence, the Kd [14] was ≥ 20 µM, the Kd [15, 43] was ≥ 20 µM and the Kd [16, 43] was ≥ 20 µM. The Kd [17] was 0.691 µM, the Kd [18, 43] was ≥ 20 µM and the Kd [19] was ≥ 20 µM. The Kd [20] was ≥ 20 µM, the Kd [21] was ≥ 20 µM and the Kd [22] was 3 µM. For the same sequence, the Kd [23] was 1.21 µM.
In the case of GMAEDLQSL, the Kd [1, 44] is reported as ≥ 20 µM, the Kd [24, 44] is reported as 0.0657 µM and the Kd [3, 44] is reported as ≥ 20 µM. The Kd [4, 44] was ≥ 20 µM, the Kd [25, 44] was ≥ 20 µM and the Kd [6, 44] was ≥ 20 µM. For the same sequence, the Kd [26, 44] was 1 µM, the Kd [27, 44] was ≥ 20 µM and the Kd [7, 44] was 0.39 µM. The Kd [28, 44] was ≥ 20 µM, the Kd [10, 44] was ≥ 20 µM and the Kd [12, 44] was ≥ 20 µM. For the same sequence, the Kd [29, 44] was ≥ 20 µM, the Kd [16, 44] was ≥ 20 µM and the Kd [30] was ≤ 0.0001 µM.
LTDKSGSEY was tested, and the Kd [1, 45] was 0.0012 µM and the Kd [2, 45] was 0.29 µM.
In the case of SMLSYGNVL, the Kd ([24]; source organism: Amur virus) is reported as ≤ 0.001 µM, the Kd [31] is reported as 0.003 µM and the Kd [32] is reported as 0.075 µM. For the same sequence, the Kd [33] was 0.614 µM.
STEFIPNLF was tested, and the Kd ([34]; source organism: human gammaherpesvirus 4) was ≥ 20 µM.
For SYINRTGTF, the Kd [1, 46] was ≥ 20 µM, the Kd [24, 46] was ≥ 20 µM and the Kd [3, 46] was ≥ 20 µM. The Kd [4, 46] was ≥ 20 µM, the Kd [25, 46] was 0.0054 µM and the Kd [35] was 0.0018 µM. The Kd [5, 46] was ≥ 20 µM, the Kd [6, 46] was ≥ 20 µM and the Kd [36] was ≥ 20 µM. For the same sequence, the Kd [26, 46] was ≥ 20 µM, the Kd [27, 46] was ≥ 20 µM and the Kd [37, 46] was ≥ 20 µM. For the same sequence, the Kd [7, 47] was 0.584 µM, the Kd [28, 46] was ≥ 20 µM and the Kd [10, 46] was ≥ 20 µM. For the same sequence, the Kd [12, 46] was ≥ 20 µM, the Kd [29, 46] was ≥ 20 µM and the Kd [15, 46] was ≥ 20 µM. The Kd [16, 46] was ≥ 20 µM, the Kd ([18]; source organism: Influenza A virus (A/Fort Monmouth/1/1947-mouse adapted(H1N1))) was ≥ 20 µM and the Kd [38] was 3.67 µM. The Kd [39] was 0.477 µM.
With VPAQNAIST the Kd [1, 48] was ≥ 20 µM, the Kd [24, 48] was ≥ 20 µM and the Kd [3, 48] was ≥ 20 µM. For the same sequence, the Kd [4, 48] was ≥ 20 µM, the Kd [25, 48] was ≥ 20 µM and the Kd ([5]; source organism: Influenza A virus H3N2) was ≥ 20 µM. For the same sequence, the Kd [6, 48] was ≥ 20 µM, the Kd [26, 48] was ≥ 20 µM and the Kd [27, 47] was 0.063 µM. The Kd [37, 48] was ≥ 20 µM, the Kd [40] was ≥ 20 µM and the Kd [7, 48] was ≥ 20 µM. For the same sequence, the Kd [28, 48] was ≥ 20 µM, the Kd [10, 48] was ≥ 20 µM and the Kd [12, 48] was ≥ 20 µM. The Kd [13, 48] was ≥ 20 µM and the Kd [16, 48] was ≥ 20 µM.
For VSITNPFLF, the Kd ([34]; source organism: Shigella flexneri 5 str. 8401) was ≥ 20 µM and the Kd [41] was 0.0057 µM.
